Experimental data: US20220403048A1, “BINDING MOLECULES TO ARGINASE II [ARG2]” (Cancer Research Technology Limited, priority 2019, published 2022)

Tests used:
[1] = target: T1, recombinant human trimeric ARG1 enzyme (Homo sapiens, UniProt P05089); experiment: Direct binding HTRF assay, human trimeric ARG1; conditions: purified scFv, FIG. 1B
T1 construct: Avi tag (N); His10 (after a GGG linker) (C); made in house; host or cells: E. coli BL21 (DE3)
T1 sequence (P05089 with tags, fused parts or gaps): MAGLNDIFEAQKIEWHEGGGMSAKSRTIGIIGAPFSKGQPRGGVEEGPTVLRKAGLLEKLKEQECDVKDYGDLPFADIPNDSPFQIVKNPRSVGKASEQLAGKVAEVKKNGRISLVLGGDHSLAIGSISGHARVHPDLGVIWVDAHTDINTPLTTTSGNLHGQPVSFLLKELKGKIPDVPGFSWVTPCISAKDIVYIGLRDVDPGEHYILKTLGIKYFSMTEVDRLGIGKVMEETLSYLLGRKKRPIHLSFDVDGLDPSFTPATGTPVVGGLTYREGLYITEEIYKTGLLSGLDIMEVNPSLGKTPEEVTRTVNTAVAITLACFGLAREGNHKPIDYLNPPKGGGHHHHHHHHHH

ARG2 = target: T2, ARG2 (Homo sapiens, UniProt P78540); experiment: T cell proliferation assay (BrdU, 72 hours) with exogenous ARG2; assay type: cell-based; parameters: human ARG2 (aa23-354); His10 (C); made in house; host or cells: E. coli BL21 (DE3)
T2 sequence (P78540 23-354): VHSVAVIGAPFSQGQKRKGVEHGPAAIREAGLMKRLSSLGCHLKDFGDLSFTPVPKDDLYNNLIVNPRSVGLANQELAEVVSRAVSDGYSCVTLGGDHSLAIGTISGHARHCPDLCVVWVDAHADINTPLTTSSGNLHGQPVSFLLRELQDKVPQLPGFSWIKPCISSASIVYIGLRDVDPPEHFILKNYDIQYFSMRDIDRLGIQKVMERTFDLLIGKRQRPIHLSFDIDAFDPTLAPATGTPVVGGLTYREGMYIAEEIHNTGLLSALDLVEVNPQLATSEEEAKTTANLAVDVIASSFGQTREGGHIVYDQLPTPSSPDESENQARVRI
Description: This assay served to provide in vitro evidence of functional efficacy for each antibody.
Briefly, Leukocyte cones (NHS Blood and Transplant, Watford, UK) underwent Ficoll Plaque (GE, Sweden; Cat: 17-1440-02) gradient separation, PBMC's were extracted and pan T cell population isolated by negative selection using the Human T Cell Enrichment Kit (Stemcell Technologies, France; Cat: 19051) according to the manufacturer's instructions.
40000 cells/well were seeded in complete growth media (RMPI 1640, 5% Human Serum Albumin) into a 96 well clear TC treated microplate (Greiner-Bio One, Germany; Cat: 655180). T Cells were activated by the addition of ImmunoCult CD3/CD28 (Stemcell Technologies, France; Cat: 10971) at a dilution of 1:40 directly into wells and the plate incubated 37° C., 5% CO2 for 45 minutes.
To determine EC50's of test antibodies, a dilution series was created in sterile TBS at 8× the final assay concentration was added to the assay plate containing cells. Plate was incubated for 30 minutes at 37° C., 5% CO2.
ARG2 was added to relevant wells of the plate at a final concentration of 15 μg/ml. The equivalent volume of ARG2 vehicle and test antibody vehicle was added to relevant control wells. […]
Calculated data was expressed as % of control (Equation 3) and graphical plots were constructed using a four parameter fit and EC50's determined using model 205 in XLFit (IDBS, UK). […]

B1: C0020065: anti-ARG2 antibody, alternate lead isolation clone, VH SEQ ID NO: 2, VL SEQ ID NO: 7 (antibody, listed as Homo sapiens, V domains shown)
VH: GVNLRESGGGVVQPGRSLRLSCAASGFTFSSYAMHWVRQAPGKGLEWVAVISYDGSNKYYVDSVKGRFTISRDNSKNTLYLQMNSLRAEDTAVYYCARDSSQLWFDYWGRGTLVTVSS
VL: QSVVTQPPSVSGAPGQRVTISCTGSSSNIGTGYDVHWYQQLPGTAPKLLIYGNSNRPSGVPDRFSGSKSGTSASLAITGLQAEDEADYYCQSYDSSLSGSVVFGGGTQLTVL
modifications: C0020065
B1 was tested, and the “binding to biotinylated recombinant human trimeric ARG1 enzyme” value [1] was “no binding”, the EC50 (ARG2; In Presence of rhARG2) was over 2000 nM and the “Maximum % Proliferation” value (ARG2; In Presence of rhARG2, NHLA value at 0.444 mM) was 49%.
